The assay has as its target T1, sperm FA-1 derived peptide (peptide 1, 35 residue peptide designed from antigen FA-1), biotinylated (biotin at the C-terminus, printed as '(SEQ ID NO: 1) - - - Biotin').
T1 peptide: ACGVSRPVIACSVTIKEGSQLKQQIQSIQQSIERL
Briefly: phage ELISA, anti-phage HRP antibody (antibody to PVIII), OD. How it is done: Infected E. coli TG-1 with panning output phages (as described above) were plated to yield individual colonies. These colonies were picked into 100 μl YTAG media in wells of a flat bottom sterile 96-well plate and grown at 30° C. shaker at 150 RPM ON. 10 μl of phage were transferred into a fresh 96-well plate containing 90 μl of YTAG+2.5 μl /ml (5×10⁸ CFU) of M13KO7 helper phage and grown at 37° C. without shaking for 30 min following shaking at 150 RPM for 30 minutes. Plates were centrifuged at 4000 RPM for 5 minutes at 14° C. and the supernatant was discarded. 200 μl /well of YTAK (with Kanamycin) was added and the plate was left to grow at 30° C. shaker at 150 RPM overnight. The bacteria plate was then centrifuged at 4000 RPM for 5 minutes at 4° C. and 100 μl of the supernatant mixed with 100 μl of PBST was used for the ELISA.
100 μl /well of antigen and control antigen were plated in ELISA plates at 4° C. overnight to coat the plates. The ELISA plates were washed once with washing buffer (300 μl/well of PBST) and blocked with 3% milk/PBS for 1 hr at room temperature (RT). […] The reaction was then stopped with […] of 1 M HCL solution plates were read plates at […]. Detection was achieved using a horseradish peroxidase (HRP)-tagged anti-phage antibody and the color resulting from the substrate-enzyme reaction was read with an automated ELISA reader.
(An ELISA detects its analyte on a solid surface through an enzyme-linked reagent.)

B1: scFv J102 (scFv)
scFv: MAEVQLLESGGGLVQPGGSLRLSCAASGFTFSDHDMHWVRQAPGKGLEWVSGISWKSDSMAYRDSVKGRFTISRDNSKNTLYLQMNSLRAEDTAVYYCARDQEHFDFDYWGQGTLVTVSSGSAGGGGSGGGGSGGGGSDIVLTQPPSASGTPGQRVTISCSGSSSNLGSNTVNWYQQLPGKAPKLLIYDNNQRPSGVPDRFSGSKSGTSASLAISGLRSEDEADYYCAAWDDSLSGLVFGTGTKLTVL
notes: Human-derived scFv from a phage display library; also called Clone J102
Consider B1, for which the binding result is recorded as “binds”.

For the origin of these results see patent US20130045184A1 (published 2013).
